These results are taken from patent publication US11667697.

Changes are numbered by the printed parent chain.

The target in test [1] is CPXV ortholog of D8 (cowpox virus). The test can be described thus: lysate ELISA.
Test [2] deals with MPXV ortholog of D8 (monkeypox virus). The experiment in a line: lysate ELISA.
In test [3] the target is CPXV ortholog of D8 (cowpox virus). The test can be described thus: cell-based or functional assay.
For test [4], the target named is MPXV ortholog of L1 (monkeypox virus). The test can be described thus: cell-based or functional assay.
Test [5] deals with CPXV ortholog of L1 (cowpox virus). The test can be described thus: cell-based or functional assay.
Test [6] has the same target. The test can be described thus: lysate ELISA.
Test [7] deals with VARV ortholog of L1 (variola virus). The test can be described thus: purified antigen ELISA.

B1: MPXV-61 (antibody, V domains shown)
V domain 1: QVQLVQSGAEVKKPGSSVKVSCKASGETFSRYAFSWVRLAPGQGLEWLGRIIPFIDIPNYAQKFQGRVTITADKSTSTAYMELSSLRSEDTAVYYCASSLPSTYYFGSGNYPWGNWLDPWGQGTLVTVSS
V domain 2: QSVVTQPPSVSAAPGQNVTISCSGSSSNIGNNYVSWYHQLPGTAPKLLIYDNDKRPSGIPDRFSGSKSGTSATLGITGLQTGDEADYYCGTWDSSLSEVVFGGGTQVTVL
For the molecule B1, the EC50 in test [1] was 0.009 µg/mL; in test [2] it was 0.004 µg/mL.

B2: VACV-8 (antibody, V domains shown)
VH: QVQLQQWGAGLLKPSETLSLTCAGYGGSFSGYFWSWIRQPPGKGLEWIGEINHSGSTDYNPSLKSRVTISLDTSKTQFSLKLSSVTAADTAVYYCARVMTGITNYYYYYGMDVWGQGTTVTF
VL: DIQLTQSPSFLSASVGDRVTITCRASQDISSYLAWYQQKPGKAPKLLIYAASTLQSGVPSRFSGSESGTEFTLTISSLQPENFATYYCQHLNSYPRGYTFGQGTKVDIK
In test [3], B2 came in with a PRNT Emax, CPXV MV+C' of 58% and a PRNT IC50, CPXV MV+C' of 2 µg/mL. Also, in test [1], the EC50 worked out at 0.1 µg/mL. Moreover, the EC50 in test [2] was 0.06 µg/mL.

B3: MPXV-26 (antibody, V domains shown)
VH: QVQLVQSGGGLIQPGGSLRLSCVVSGFNVATNYMSWVRQAPGKGLEWVSVIYSGGSTYYADSVKGRFTISRDNSKNTVFLQMNSLRPEDTAAYYCAKGGGLGLDYWGQGTLVTVSS
VL: QSALTQPPSASGSPGQSVTITCTGSSSDVGGYNYVSWYQQHPGKAPKVVIYEVNKRPSGVPHRFSGSKSGNTASLTVSGLQAEDEADYYCSSYAGTETVAFGGGTKLTVL
Consider B3, for which, in test [4], the PRNT Emax, MPXV MV was 96%; the PRNT Emax, MPXV MV+C' came to 97%; the PRNT IC50, MPXV MV was determined as 3 µg/mL; the PRNT IC50, MPXV MV+C' amounted to 6.2 µg/mL. In test [5], this molecule registered a PRNT Emax, CPXV MV of 99%; a PRNT Emax, CPXV MV+C' of 93%; a PRNT IC50, CPXV MV of 0.07 µg/mL; a PRNT IC50, CPXV MV+C' of 0.2 µg/mL. In test [6], the EC50 amounted to 0.05 µg/mL. The same molecule registered an EC50 in test [7] of 0.02 µg/mL.

B4: MPXV-27 (antibody, V domains shown)
VH: QVQLQQWGAGLLKPSETLSLTCDVYGGSFSGYYWSWIRQPPGKGLEWIGEINHSGSTTYTPSLRSRVTISVDTSKNQFSLKLSSVTAADTAVYYCARVLSGWLPFPNYYYYMDVWGKGTTVT
VL: DIQMTQSPSSLPASVGDRVTITCRASQDIRNNLGWYQQKPGKAPERLIYGTSNLQSGVPSRFSGSGSGTEFTLTISSLQPEDFATYYCLQHNSYPPTFGRGTKVEIK
As to B4, in test [3], the PRNT Emax, CPXV MV+C' stood at 75% and the PRNT IC50, CPXV MV+C' was 0.08 µg/mL. For the same molecule, the EC50 in test [1] is 0.02 µg/mL. The EC50 in test [2] was 0.02 µg/mL.

B5: VACV-33 (antibody, V domains shown)
VH: QLQLQESGPGLVKPSETLSLTCTVSGGSISSGGYYWGWIRQPPGKGLEWIASIYYSGSTYYNPSLKSRVTISVDTSKTQFSLKLSSVTAADTAVYYCARQSSSTGGFHYWGQGTLVTVSS
VL: QSVLTQPPSVSGAPGQRVTISCTGSSSNIGAGYDVHWYQHLPGTAPKLLIYGNSNRPSGVPDRFSGSKSGTSASLAITGLQAEDEANYYCQSYDSSLSGREVFGGGTQLTVL
In the case of B5, in test [4], the PRNT Emax, MPXV MV is 50% and the PRNT IC50, MPXV MV is 70 µg/mL. In test [5], this molecule came in with a PRNT Emax, CPXV MV of 74%; a PRNT Emax, CPXV MV+C' of 75%; a PRNT IC50, CPXV MV of 0.5 µg/mL; a PRNT IC50, CPXV MV+C' of 0.2 µg/mL. The molecule also came in with an EC50 in test [6] of 0.06 µg/mL. The molecule also registered an EC50 in test [7] of 0.02 µg/mL.

B6: VACV-117 (antibody, V domains shown)
VH: QVQLVQSGAEVKKPGASVKVSCKASGYTFTSYDINWVRQATGQGLEWLGWMNPNSGNTKSAQKVKGRVTMTRDTSISTAYMELSSLRSEDTAVYYCARTPFDDIGYYYWGQGTLVTVS
VL: DIVMTQSPLSLSVTPGEPASISCRSSQSLLHSNGYNYLDWYLQKPGQSPQLLIYLGSNRASGVPDRFIGSGSGTDFTLKISIVEAEDVGVYYCMQALQTPGAFGPGTKVDIK
Take B6: the EC50 was 0.01 µg/mL in test [1] and above 26 µg/mL in test [2].

B7: VACV-304 (antibody, V domains shown)
VH: EVQLVESGGGLVQPGGSLRLSCVVSGFTFSNYWMSWVRQAPGKGLEWVANIKQDGSKKYYVDSVTGRFTISRDNAKNSLYLQMNSLRAEDTAVYYCATLNLELAVDAISEALKWGQGTLVTVSS
VL: SYELTQPPSVSVSPGQTARITCSGDALPKQFAYWYQQKPGQAPVVMIYKDSERPSGIPERFSGSSSGTTVTLTISGVQAEDEADYYCQSVDNSGTYEVFGGGTQLTVL
B7 came in with a PRNT Emax, CPXV MV+C' in test [3] of 79%. The molecule further returned a PRNT IC50, CPXV MV+C' in test [3] of 0.1 µg/mL. Moreover, the EC50 in test [1] was determined as 0.05 µg/mL; in test [2], 0.1 µg/mL.

B8: MPXV-96 (antibody, V domains shown)
VH: QVQLQQWGAGLLISSETLSLTCGVYGGSFSGYYWTWIRQPPGKGLEWIGEINYVGSTNYNPSLKSRVTMSVDTSKNHFSLSLSSVTAADTAVYYCARGLRGNSVCFDWGPGTLV
VL: ELVMTQSPATLSVSPGERASLSCRASQSVSSNLAWYQQKPGQAPRLLIYGASTRATGLPARFSGSGSGTEFTLTISSLQSEDFAIYYCQQYNNWPRTFGQGTKVDI
Consider B8, for which the values for the EC50 in test [1] and in test [2] were 0.003 µg/mL and 0.001 µg/mL, respectively.

B9: VACV-128 (antibody, V domains shown)
VH: EVQLVQSGAEVKKPGATVKISCKVSGYTFTDYYMHWVQQAPGKGLKWMGLLDPLDGETIYSEKFQGKVTITADTSTDTAYMELSSLRSEDTAVYYCARELTGYLNYWGQGTLVTVSS
VL: DIQMTQSPSSLSASVGDRVTITCRASPGICNYLAWYQHKPGKVPKLLIYAASTLQSGVPSRFTGVGSGTNFTLTINNLPPENVATYYCQKYNSAPHTFGQGTKVDIK
With B9, in test [3], the PRNT Emax, CPXV MV+C' stood at 71% and the PRNT IC50, CPXV MV+C' turned out to be 0.3 µg/mL. This molecule had an EC50 in test [1] of 0.25 µg/mL.

B10: VACV-66 (antibody, V domains shown)
VH: QLQLQESGPGLVKPSETLSLTCTVSGDSISSNNYYWGWIRQPPGKGLEWIGSIYYSGSTYYNPSLKSRVTISVDTSKNQFSLKLSSVTAADTAVYYCARHRRVLLWFGEFQLWGQGTLVTVSS
VL: QSALTQPPSVSGAPGQRVTISCTGSSSNIGAGYDVHWYQQLPGTAPKLLIYGNINRPSGVPDRFSGSKSGTSASLAITGLQAEDEADYYCQSYDSSLSGALFGGGTQLTVL
With B10, the EC50 in test [2] is above 0.3 µg/mL.

B11: VACV-159 (antibody, V domains shown)
VH: QLQLQESGPGLVKPSETLSLTCTVSGGSISSSSYYWGWIRQPPGKGLEWIGSIYYRGSTYYNPSLKSRITISVDTSKNQFSLKLRSVTAADTAVYYCARHLRVLLWFGELLEWGQGTTVTVSS
VL: B10 VL with G32D, I54S, Y93H, A100Y, L101V, G104T, Q107K, L108V
For B11, the EC50 in test [1] is above 28 µg/mL; in test [2], above 14 µg/mL.

B12: VACV-136 (antibody, V domains shown)
V domain 1: QVTLKESGPVLVNPTETLTLTCTVSGFSLSNARMRVSWIRQPPGKALEWLAHIFSNDEKSYSTSLKSRLTISKDTSKSQVVLTMTNMDPVDTASYYCARMRGEYNSYYFDSWGQGTLVTVS
V domain 2: SYELTQPPSVSVSPGQTARITCSGDALPNQYAYWYQQKPGQAPVLVIYKDSERPSGIPERFSGSSSGTTVTLTISGVQAEDEADYYCQSADSSGTSVVFGGGTQVTV
Regarding B12, in test [3], the PRNT Emax, CPXV MV+C' came to 75% and the PRNT IC50, CPXV MV+C' was 0.2 µg/mL. Besides, the EC50 in test [1] came to 0.05 µg/mL. The EC50 in test [2] is 0.04 µg/mL.
